Results as given in a protein production outcome set (Wang et al. 2014).

Test: label from the status in PepcDB records
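Further: failed if final PepcDB status was selected cloned or expressed and not failed if soluble or beyond.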

Sequence | protein production
MGGSFYPCLSVSKRAIGKNTAYSTLYYLQYTIKKASFSNVIYTSENNNIFRVSLLTFSFFYFTRTVKNSHMPTTTLEQQRTRQGVLFALGAYTIWGIAPIYFKTISEVSPLEILSHRVIWSFFFLAALLSFSKGWATVINTLKDKKKMTYLITTSVLIGANWLIFIWAVNAGHMLDASLGYYINPLLNVVLGMIFLGERLRRLQWVAVLFASAGVLIQLITFGSIPVVAIALACSFGFYGLLRKKVAMDAQTGLFIETLVMLPLTLIYLLFIADSATSNFSENTLNLNLLLIAAGIITTVPLLCFTGAATRLKLSTLGFFQYIGPSLMFLLAVGLYGEEFSADKAITFGFIWGALVIFTTDAFMARNKKNK | failed
MQKIVIVANGAPYGSESLFNSLRLAIALREQESNLDLRLFLMSDAVTAGLRGQKPGEGYNIQQMLEILTAQNVPVKLCKTCTDGRGISTLPLIDGVEIGTLVELAQWTLSADKVLTF | not failed
MAIMRHGLAASVMGTALAMVVAVLPAGCANGQVGEANRPGTTPPSEIALAPSGLGSYLAARHAEAEGDTEAAAAFYLTALADDPDNLNLLRRAYFFNAVEGKVGEAAELASRLMVSDPTATIAPLVISADLAKRGQMREAATLINGQNRQGLNSFLVPVALAWARAGAGDAGGAMTALDELSKNAGYATLRALHGALLQEQLGNKAKAGELYEAYVKGGERPSLRGVQLAGGFFVRTGQAARARALAADYSQRFPDSLLLDNAVAGFAEGGTPPAPEVGTAKDGMAELYYGTASLLADNDLQTATMFNRLALHLRPDFPLAQLLLGQLLAGQNRHDDAIAAYRGIESHDTLMLAAGLAEAESLRAQGKIDDAVVEFDKLAAHFPSRPDPLIEKGDLLRQDQRFAEAATAYSAAIARMGAPDPRHWAVYFGRGVAYERTDRWPLAEQDFQTALRLNPDQPFVLNYLGYSWLDNGINVDQAKQLIERAVAQRPKDGYIIDSLGWAHFRLGEYAEAVGILERAIHETPDDATINDHLGDAYWMVGRRLEARYQWERALSLADDADLSASIQKKLDTGLSPPSPVVPRSAGRPAERQPTSATP | failed
MTHQVIDCLGVVLAGGLSSRMGQDKAQLKRLQKTTDPSAKSAHSMLDFSKQLLADAGIKNIVISGDNHQIPDRVPHAGPVGGIYSVLSHYLANSPEHLQPKALLILPVDLPLMTASALTELRLKGELSHKATFFSDRQKNRHHIPLYLPNNAFLNMFLMQAFHREELLANSKGNNKKNGPSVRAMLEQVPHQAIASLNNQVLFNTNTPEQWQQAQQKF | failed
MNLKQISAIIIVKNAKQTLLECLNSLKDFDEIILLNNESSDNTLNIANEFKKDFANLHIYHSAFIGFGALKNLALSYAKNDWILSIDADEVLENECIKELKNLELQEDNIIALSRKNLYKGEWIKACGWWPDYVWRIFNKNFTRFNDNLVHESLVLPSNAKKIYLKNGLRHYAFRDISHLIDKMQYYSSLWAKQNIHKKSGVLKANLRAFWTFFRNYFLKNGFLYGYKGFIISVCNALGTFFKYMKLYELQKQKPKTCALIITTYNQKERLKLVLDSVKNLAFLPNEVLIADDGSKEDTARLIEEYQKDFPCPLKHIWQEDEGFRAAKSRNNAIKASKSEYIILIDGDMILEKDFVKNHLEFAKRKVILQGSRVILNKNESEEILKNNNYSLAFNKKGFKNQRSIFLAKCVYKFSKLTKKFFKKSQLVKGSKTCNMSFYKSDFEAIEGFNEKFIGWGREDSEFVARFLFNDGVFKRLKFNALAYHIYHEENSKNMLEINHQIYLETIKNEKTTWRLEHHHHHH | failed
MAGEFRLLSHLCSRGSKVGELAQDTRTSLKTSWYLLGPAFVAAIAYVDPGNVAANVSSGAQFGYLLLWVIVAANVMAALVQYLSAKLGLVTGRSLPEAIGKRMGRPARLAYWAQAEIVAMATDVAEVIGGAIALRIMFNLPLPIGGIITGVVSLLLLTIQDRRGQRLFERVITALLLVIAIGFTASFFVVTPPPNAVLGGLAPRFQGTESVLLAAAIMGATVMPHAVYLHSGLARDRHGHPDPGPQRRRLLRVTRWDVGLAMLIAGGVNAAMLLVAALNMRGRGDTASIEGAYHAVHDTLGATIAVLFAVGLLASGLASSSVGAYAGAMIMQGLLHWSVPMLVRRLITLGPALAILTLGFDPTRTLVLSQVVLSFGIPFAVLPLVKLTGSPAVMGGDTNHRATTWVGWVVAVMVSLLNVMLIYLTVTG | failed
MQNYKSGELALLDVPVPGCKPGGVLVRTAYSLISTGTELMKVSEAGMSMLGKARSRPDQVAKVVQSVATNGVPATYRKVMGKLDSYTPLGYSLCGVVEQVGEGIDDVKAGDLVACAGNEHALHAELNWVPRNLYAPVPDGLAARDAAFGTVGSIALQGVRQGESRLGETALVIGLGLIGQLVVQLLVASGVRVVGADPDAERCELAERLGAAACGDPASPAVESAVVELTDGHGVDQVYLAAGGGSNQPVELAARLCRDRGRVVDIGKCRLDLPWNAYYEKELDVRFSRSYGPGRYDPEYELEGRDYPIGYVRWTERRNLACFLDLVARGRVDVAPLITRTADFDDAVETYRSLQDGALKAVAVLFRYPGQPDAEAPAGAPAVTVPGVRRGAGAAAPARAARTPVRLAFVGAGNYATSMLLPHLARREGVELSTVVTTTALSAANAQRKFGFGEATTDLDAVLGDASVDAVFVVTRHSSHAELTRKALLAGKAVFVEKPLALTGEELTGVLAAVEESGNDRVQVGFNRRFAPLLQEARKRFGARTGPASLRYLVNAGRLDHGSWYLQQGTEGSRFAGEGGHFVDTASWLLGADPVSVYALAPSSNEDLQVVLGYPDGSTATLSYVTTGAAGFPKETLDLVADGKVLQLDDFVRSSVYDGRKRWVSSRLPKARDKGQSAELAAFVRAVRTGGPMPVPLESLVATTAATLAVRTALAAGAPVGLAEAR | failed
MKSSNIGGQAVMEGIMMRHKDKYAIAVRRPDKEIELKVEDYKCTFGKAAFLKWPIIRGVVSFVDGLVVGTKCLMYSAEIAGDEEDEKEAAKNATLTEEELSAKKAKEAKQFQ | not failed
MQEIEIFCDGSSLGNPGPGGYAAILRYKDKEKTISGGEEFTTNNRMELRALNEALKILKRPCRITLYSDSQYVCQAINVWLANWQKKNFSKVKNVDLWKEFLEVSKGHSIVAVWIKGHNGHAENERCDSLAKLEAQKRVKTTT | failed
MKIPKIYVEGELNDGDRVAIEKDGNAIIFLEKDEEYSGNGKLLYQVIYDDLAKYMSLDTLKKDVLIQYPDKHTLTYLKAGTKLISVPAEGYKVYPIMDFGFRVLKGYRLATLESKKGDLRYVNSPVSGTVIFMNEIPSERANYVFYMLEE | not failed
MKVSIIVPCYSVASKLPRCVHNLLAQTFTDWELILIDDGSTDNTWDICNSFTKNNAHIHAVHKENGGVSSARNTGIEIAKGEFITFIDSDDYVKPDYLQKLVEGQEADLVLCGFRSSTGIDFTPEPQYLIGDDLSKNIQAIVENDYLLYSPWCKLFRRDIIQKHQHRFDPEIRLGEDTIFCYKYLLYCSSIKVVASNSYFYDGVWGGYKKYVLTRQEVEYLDKAEITTLHDINQHFNCRIDLTYRGYHVAMLKGLYEKFRDYDTFEMYTRTHDVLPPEHFFANHKLSYIFWGIVELETLYVDKEYCAGKLFMQRLHHFFTIPTNQLLSYSYKMRLIHYLVKSKHYTMAHVLLIFLSILKHLEHHHHHH | failed
MKSYRKELWFHTKRRREFINITPLLEECVRESGIKEGLLLCNAMHITASVFINDDEPGLHHDFEVWLEKLAPEKPYSQYKHNDTGEDNADAHLKRTIMGREVVIAITDRKMDLGPWEQVFYGEFDGMRPKRVLVKIIGE | not failed
MGFSKVPLIWLCHPKIIAIDSKHVEVRIPLRRRTKNHLNSMYFGALAVGADVAGGFLAMSKAQEKGEAISLAFKGVKAEFLKRPEADVHFVCNDGHVIDEMLDHTIATGERVNRDVKIIALCPSLHGQEPMAEFALTLSLEHHHHHH | failed
MGNNGRDILAGLSVAGLMLPEAIAYSGIAGVPPQHALYAAMAGCLVYALLGQSRFAIISPTSSSAAILAAMLAALVPQPGQKMLLVAVAVFLVGLFFLAAGTLRLGALSSIISRPVLRGFAFGLAILISLKQFPAIFGMPQAGAGTFEAILQILTNPGQWNGFSLSIGIAALILLLFARRYPQIPGSLIIIALAIPISVMFDLQQRGVDVVGPIDLSGIWGSVTTLSLDELAHVARFAPPLVLILFAESWGTIRGLSLRHGEDVDANRELKTLGIANVASAALQGMPVGAGFSAGAASEAANPRTRMASAIAAIGLAGFTFAAADWFAYIPHAALSAIIIVALLHALDPSPFLRLWRLRQDLVLALAATAGVLFLGVLNGMLAAIVLSFAVFLQRLSSPRIVMLGRLGASHDFVDVKRHPDAAEPAGMLVLRPAQPLFFGNAEPTFAEITRRILASPDINAVIISLEETFELDTTALEALLEFDASLRGRNIGIRYAPMHDAVRDVVAAGGGDDLLRRANYSVDDAVAAMDGLKEEK | failed
MSGSEYSEVDVNEGDSIWALADQYAAKSDMAKADFVSWVEKENNLTDGHVKAGDYVVIPVHETKLQRSDSTIQLANQLEHHHHHH | not failed
MLSPCCHGQSMKTKITGKTISRIVPAEKVYRIHDTLQPGLSIRVLPSGHASYMVTWARNKAATLGRVGVITLEQARTDASRYLADAHAIGEPVAITEKRTGAAMPTLDHFLTHTFEPWAAEHHRDAKNGNRAIRHSFEALLSIPLSSIDTKRVEQIRTAWLRAGLAPSTANRNITRLRGVLSRALEWGVLQEHPLKVRKLKVDDRSRVRYLSIEEETALREALEARSNEMRDARDSANKWRLERHKEPLADLRAVRYADHLEPLVVLSINTGVRRGEAFNLTWADVDLKNKLITVEGDTSKSGQTRHVPLNREALDTLTKWKEQRGGNGFVFPGQHGKRLDNVKKSWSGLLKLAKVERFRWHDLRHTFASKLVMAGVPLNTVRELLGHTDIKMTLRYAHLAPGTKAAAVELI | failed
LNLMMTPMLKVLATPERLAFGLKQMVSYLHANGVTAYMEPGALYTPDMWKLYEQILGAPETPMYATFIADGRGIVDRVGLDGALDAVEQQIAVAPEAPGRKLMFFPGQIKLFADGAIISQLMQMKDGYLDGHQGEWIIPPDELERRARLFWNAGYQIHTHVNGDLGLEKLLDILEKLNAEHPRPDHRSVIVHFANSTEDQVARIKRLGALVSANPYYTTGFADKYSAVGLGPERADAMVRAKSVLDQGVPLSYHSDLPMAPSAPLYLAWCGVNRLTPSGRVAGPEQRVSVDAALRAITIEAAYSWRHEDQ | failed
MGNKLVNSLSKITTSSKEVTSDILVMNFTIVNAFLIGNKTQWVLVDTALENSADFILKAAEKRFGKGSVPKAIILTHGHFDHVGSVIKLSKLWSVPVYIHELEMPYVTGKKDYPLADPTVDEGMVAKISQTFPHTSIDISSNVSPLPSDSSIPYMPDWKWIHTPGHTDGHISLFREKDHVLIVGDAFCTTKQESLLSVITHHEEISGPPKYLTTDWAKAKNSIICLKNLKPLIAIPSHGEELSGEELTKHLELLINNFDEIAKPAEGQFVTNK | failed
MNDLSQWSISKDSNLDSPWIEGIPGCGIPGAGSLVEHIDRQILVLQRDGRYIVGLLRSYDQYANLVLENTFERFVLNDSYCDEPLGVFIIRGENVALLGEVDGEKESQWLSHLHTVSLEDTKKTIRGKRQATKALLHSQPERVEWTFYDDAFF | not failed
